Assay results as given in the supplement of paper PMC10724198.
± gives the standard deviation of the averaged measurements.

Test system: Saccharomyces cerevisiae
Assay: protein stability index of tFT-peptide fusion (C-terminal peptide) (PSI (0-1 scale)); higher = more stable (slower turnover)
Details: genetic background: wild type; temperature: 30 C
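Also: PSI is a weighted mean of sequencing reads over stability bins, variants kept only with over 10 reads, mCherry proximal and sfGFP distal, peptide attached via GGGS linker.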

Row | Sequence | protein stability index
1 | PPTHPPLPPPLL | 0.689 ± 0.07
2 | PPTPPPNPPSRY | 0.715 ± 0.021
3 | PPTPPPPRSTPS | 0.766 ± 0.035
4 | PPTPPPVPPPWS | 0.669 ± 0.044
5 | PPTPPTARPIVL | 0.677 ± 0.018
6 | PPTRLPQGVSWR | 0.702 ± 0.066
7 | PPVLSLGPPFTS | 0.73 ± 0.11
8 | PPYFFPSDPRPD | 0.748 ± 0.067
9 | PQIVRSFLLFPP | 0.69 ± 0.0076
10 | PQPPTPLTPTPP | 0.697 ± 0.089
11 | PQSIHASIYFRL | 0.634 ± 0.02
12 | PQTYHRPPPPLH | 0.702 ± 0.028
13 | PQYLALLRTSIP | 0.739 ± 0.043
14 | PRALCPPPSPST | 0.697 ± 0.043
15 | PRAPRVSTRRPE | 0.793 ± 0.083
16 | PRASPPPLPPSP | 0.717 ± 0.032
17 | PRCSVYPITGPY | 0.682 ± 0.046
18 | PRFLGWGGCLWV | 0.7265 ± 0.0045
19 | PRGGLGTGWGRR | 0.731 ± 0.079
20 | PRGILLATPEGH | 0.684 ± 0.021
21 | PRHCYIPLPLLP | 0.661 ± 0.021
22 | PRHISIHPNATP | 0.705 ± 0.045
23 | PRLLPFPPPLDH | 0.735 ± 0.083
24 | PRLPGPAAIARR | 0.6714 ± 0.004
25 | PRLQLHSDPNCS | 0.733 ± 0.087
26 | PRLSPPSSPGPP | 0.631 ± 0.03

Row | Sequence | protein stability index
27 | PRLVHGFPRFHP | 0.669 ± 0.033
28 | PRPFPLSCSPPV | 0.751 ± 0.083
29 | PRPHRLPPRPFH | 0.6917 ± 0.0064
30 | PRPPAPPDPAPP | 0.746 ± 0.072
31 | PRPPLRPPPISP | 0.68 ± 0.066
32 | PRPPPLPPQTSS | 0.73 ± 0.1
33 | PRPPPSPPPILP | 0.676 ± 0.0072
34 | PRPPPSPTPPLT | 0.69 ± 0.095
35 | PRPPRPPRPPLP | 0.66 ± 0.016
36 | PRPPTPPTTILN | 0.652 ± 0.032
37 | PRPPYHAPSTFP | 0.575 ± 0.074
38 | PRPRQPPPPPPP | 0.689 ± 0.0076
39 | PRPRSPSPPLPP | 0.705 ± 0.01
40 | PRPRTPPPLLSF | 0.687 ± 0.057
41 | PRPSRILPLPAP | 0.65 ± 0.0072
42 | PRRLFFFFFLSG | 0.656 ± 0.017
43 | PRRPLPTISCPS | 0.618 ± 0.005
44 | PRRSPPCSTPPP | 0.726 ± 0.077
45 | PRRVGRLGAPMG | 0.719 ± 0.11
46 | PRSAAQSQMRRK | 0.711 ± 0.056
47 | PRSCPPFLPSLP | 0.727 ± 0.0099
48 | PRSRPTCYSRPG | 0.702 ± 0.04
49 | PRSSSRAGRTGT | 0.712 ± 0.031
50 | PRSSTSFLPSFL | 0.678 ± 0.064
51 | PRSVPLCALLSL | 0.654 ± 0.024
52 | PRVPLPPPHPLH | 0.728 ± 0.073

Row | Sequence | protein stability index
53 | PRVTPRFSKHAL | 0.724 ± 0.016
54 | PSALPLFWSELF | 0.661 ± 0.022
55 | PSALSSSAPSSP | 0.667 ± 0.043
56 | PSCFNAPRHPPT | 0.749 ± 0.076
57 | PSCRPPLLHPDS | 0.721 ± 0.0094
58 | PSFLTGRPISPV | 0.677 ± 0.018
59 | PSGRPPGHDNLV | 0.666 ± 0.045
60 | PSHAAPVPAPQP | 0.628 ± 0.079
61 | PSHTPNHTGYPD | 0.681 ± 0.02
62 | PSILPPPSSCPP | 0.767 ± 0.041
63 | PSIMLSSLPPPP | 0.696 ± 0.065
64 | PSKGKYKKMGPR | 0.661 ± 0.076
65 | PSLLPLLPLPPP | 0.685 ± 0.038
66 | PSLLPSRPPRSI | 0.648 ± 0.034
67 | PSLPCPVLVFSL | 0.462 ± 0.054
68 | PSLPPLPPAPLL | 0.726 ± 0.039
69 | PSLSSPQLLLTL | 0.685 ± 0.01
70 | PSNDNTMIPILE | 0.656 ± 0.04
71 | PSPALLILPPYS | 0.672 ± 0.016
72 | PSPFDTPPSSGQ | 0.722 ± 0.026
73 | PSPFPLPLSFAR | 0.538 ± 0.047
74 | PSPHTPPHTFLL | 0.755 ± 0.0022
75 | PSPLAPPLPPPS | 0.701 ± 0.015
76 | PSPLLSPPPPRP | 0.706 ± 0.024
77 | PSPLPSSGHPPP | 0.6206 ± 0.0046
78 | PSPLSLIPSSRP | 0.663 ± 0.095

Row | Sequence | protein stability index
79 | PSPMHPSAHFST | 0.67613 ± 0.00039
80 | PSPPAPFPLVPT | 0.607 ± 0.032
81 | PSPPAPLSLLLP | 0.645 ± 0.074
82 | PSPPAQSASLFF | 0.663 ± 0.02
83 | PSPPLPPPPSPY | 0.72 ± 0.1
84 | PSPPPAVLPPPP | 0.693 ± 0.039
85 | PSPPPLLAPSPL | 0.683 ± 0.096
86 | PSPPPLLTRPLP | 0.713 ± 0.1
87 | PSPPPPHPSALT | 0.648 ± 0.012
88 | PSPPPPPPHPAP | 0.694 ± 0.035
89 | PSPPPPPRTFPN | 0.6756 ± 0.0064
90 | PSPPPSPPPRHF | 0.6924 ± 0.0046
91 | PSPPPTPPPPTP | 0.793 ± 0.096
92 | PSPPTPLPSRLF | 0.7829 ± 0.0037
93 | PSPRPPPPPPSA | 0.705 ± 0.009
94 | PSPSGRGLAIAP | 0.688 ± 0.013
95 | PSPSPPPPLSPP | 0.698 ± 0.045
96 | PSPSTAPPRDQG | 0.724 ± 0.016
97 | PSPSTSLPPSPP | 0.684 ± 0.042
98 | PSPSYAPARHQA | 0.651 ± 0.063
99 | PSPTIPSPPPPP | 0.615 ± 0.011
100 | PSPTLGPVSFPH | 0.703 ± 0.014
101 | PSPYFHLFGTQS | 0.77 ± 0.027
